B1: Kap114 (receptor, S. cerevisiae)
chain: MDINELIIGAQSADKHTREVAETQLLQWCDSDASQVFKALANVALQHEASLESRQFALLSLRKLITMYWSPGFESYRSTSNVEIDVKDFIREVLLKLCLNDNENTKIKNGASYCIVQISAVDFPDQWPQLLTVIYDAISHQHSLNAMSLLNEIYDDVVSEEMFFEGGIGLATMEIVFKVLNTETSTLIAKIAALKLLKACLLQMSSHNEYDEASRKSFVSQCLATSLQILGQLLTLNFGNVDVISQLKFKSIIYENLVFIKNDFSRKHFSSELQKQFKIMAIQDLENVTHINANVETTESEPLLETVHDCSIYIVEFLTSVCTLQFSVEEMNKIITSLTILCQLSSETREIWTSDFNTFVSKETGLAASYNVRDQANEFFTSLPNPQLSLIFKVVSNDIEHSTCNYSTLESLLYLLQCILLNDDEITGENIDQSLQILIKTLENILVSQEIPELILARAILTIPRVLDKFIDALPDIKPLTSAFLAKSLNLALKSDKELIKSATLIAFTYYCYFAELDSVLGPEVCSETQEKVIRIINQVSSDAEEDTNGALMEVLSQVISYNPKEPHSRKEILQAEFHLVFTISSEDPANVQVVVQSQECLEKLLDNINMDNYKNYIELCLPSFINVLDSNNANNYRYSPLLSLVLEFITVFLKKKPNDGFLPDEINQYLFEPLAKVLAFSTEDETLQLATEAFSYLIFNTDTRAMEPRLMDIMKVLERLLSLEVSDSAAMNVGPLVVAIFTRFSKEIQPLIGRILEAVVVRLIKTQNISTEQNLLSVLCFLTCNDPKQTVDFLSSFQIDNTDALTLVMRKWIEAFEVIRGEKRIKENIVALSNLFFLNDKRLQKVVVNGNLIPYEGDLIITRSMAKKMPDRYVQVPLYTKIIKLFVSELSFQSKQPNPEQLITSDIKQEVVNANKDDDNDDWEDVDDVLDYDKLKEYIDDDVDEEADDDSDDITGLMDVKESVVQLLVRFFKEVASKDVSGFHCIYETLSDSERKVLSEALL
notes: also called Sc Kap114; source: E. coli, expressed as GST-Kap114, purified (Glutathione Sepharose 4B, on-column TEV cleavage, SEC)
B3: Nap1 core (residues 75–365) (domain or fragment, S. cerevisiae, UniProt P25293 75-365, looked up)
chain: GSLVGQDSGYVGGLPKNVKEKLLSLKTLQSELFEVEKEFQVEMFELENKFLQKYKPIWEQRSRIISGQEQPKPEQIAKGQEIVESLNETELLVDEEEKAQNDSEEEQVKGIPSFWLTALENLPIVCDTITDRDAEVLEYLQDIGLEYLTDGRPGFKLLFRFDSSANPFFTNDILCKTYFYQKELGYSGDFIYDHAEGCEISWKDNAHNVTVDLEMRKQRNKTTKQVRTIEKITPIESFFNFFDPPKIQNEDQDEELEEDLEERLALDYSIGEQLKDKLIPRAVDWFTGAAL
notes: Nap1 (nucleosome assembly protein 1), S. cerevisiae, core, residues 75–365; pET15b vector, gift from Karolin Luger; The His tag is said to be removed only for pull-down assays; also called His-Nap1 core; Nap1 core dimer; source: E. coli, purified (nickel-NTA, ion exchange, SEC)

Data set [1] concerns the target B1. The data set is described as follows: SEC-MALS; 1:1:1 mixture of Kap114, Nap1_(2) and H2A-H2B (80 µM each), no Ran^GTP; Assay buffer without glycerol; Nap1 counted as dimer. Background: Size exclusion chromatography separates by hydrodynamic size, large species first.
The target in data set [2] is Nap1 FL (C200A, C249A, C272A) (S. cerevisiae) (UniProt P25293). The data set is described as above.
Data set [3] addresses B1. Put plainly: SEC-MALS; equimolar mixture of Kap114, Nap1_(2), H2A-H2B and Ran^GTP; Assay buffer without glycerol; Nap1 counted as dimer.
Data set [4] concerns the target Nap1 FL (C200A, C249A, C272A) (S. cerevisiae) (UniProt P25293). The description is as above.
Data set [5] deals with TBP (Saccharomyces cerevisiae) (UniProt P13393). The note with it: cited from earlier work.
Chain of TBP (Saccharomyces cerevisiae) (P13393 2-240): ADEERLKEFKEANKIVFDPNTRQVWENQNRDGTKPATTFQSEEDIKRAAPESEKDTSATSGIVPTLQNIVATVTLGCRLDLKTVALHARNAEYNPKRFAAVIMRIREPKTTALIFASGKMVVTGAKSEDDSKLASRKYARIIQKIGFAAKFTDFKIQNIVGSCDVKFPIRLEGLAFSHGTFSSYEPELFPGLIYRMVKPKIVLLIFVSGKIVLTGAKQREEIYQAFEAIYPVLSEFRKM
Data set [6] deals with T1, Nap1 core (residues 75–365) (S. cerevisiae, UniProt P25293 75-365).
T1 chain: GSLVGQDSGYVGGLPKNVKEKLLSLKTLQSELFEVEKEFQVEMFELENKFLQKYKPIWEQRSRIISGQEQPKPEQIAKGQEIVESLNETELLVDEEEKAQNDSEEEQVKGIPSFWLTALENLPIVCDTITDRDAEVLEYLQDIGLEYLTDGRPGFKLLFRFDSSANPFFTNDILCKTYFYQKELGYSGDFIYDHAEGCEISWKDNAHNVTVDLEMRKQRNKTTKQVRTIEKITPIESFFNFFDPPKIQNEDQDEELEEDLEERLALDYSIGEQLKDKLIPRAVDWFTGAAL
The data set is described as follows: AUC.

Data set [7] has as its target B3. Put plainly: AUC; sedimentation velocity; Kap114 titrated into the Nap1 core dimer; isotherm with one-site model; 20 mM Tris-HCl pH 7.5, 150 mM NaCl, 2 mM MgCl2, 2 mM TCEP. The following applies: both partners purified.
Data set [8] concerns the target T2, MBP-Kap114 (S. cerevisiae, UniProt P53067 1-1004).
T2 construct: TEV site between MBP and Kap114; pMalE modified with a His6-tag immediately N-terminal of MBP and a TEV site after MBP; held on amylose resin in the pull-downs; also called immobilized MBP-Kap114; iK; source: E. coli BL21 Gold, purified (amylose beads, HiTrap Q, SEC); not shown: MBP, N-terminal, kept
T2 sequence: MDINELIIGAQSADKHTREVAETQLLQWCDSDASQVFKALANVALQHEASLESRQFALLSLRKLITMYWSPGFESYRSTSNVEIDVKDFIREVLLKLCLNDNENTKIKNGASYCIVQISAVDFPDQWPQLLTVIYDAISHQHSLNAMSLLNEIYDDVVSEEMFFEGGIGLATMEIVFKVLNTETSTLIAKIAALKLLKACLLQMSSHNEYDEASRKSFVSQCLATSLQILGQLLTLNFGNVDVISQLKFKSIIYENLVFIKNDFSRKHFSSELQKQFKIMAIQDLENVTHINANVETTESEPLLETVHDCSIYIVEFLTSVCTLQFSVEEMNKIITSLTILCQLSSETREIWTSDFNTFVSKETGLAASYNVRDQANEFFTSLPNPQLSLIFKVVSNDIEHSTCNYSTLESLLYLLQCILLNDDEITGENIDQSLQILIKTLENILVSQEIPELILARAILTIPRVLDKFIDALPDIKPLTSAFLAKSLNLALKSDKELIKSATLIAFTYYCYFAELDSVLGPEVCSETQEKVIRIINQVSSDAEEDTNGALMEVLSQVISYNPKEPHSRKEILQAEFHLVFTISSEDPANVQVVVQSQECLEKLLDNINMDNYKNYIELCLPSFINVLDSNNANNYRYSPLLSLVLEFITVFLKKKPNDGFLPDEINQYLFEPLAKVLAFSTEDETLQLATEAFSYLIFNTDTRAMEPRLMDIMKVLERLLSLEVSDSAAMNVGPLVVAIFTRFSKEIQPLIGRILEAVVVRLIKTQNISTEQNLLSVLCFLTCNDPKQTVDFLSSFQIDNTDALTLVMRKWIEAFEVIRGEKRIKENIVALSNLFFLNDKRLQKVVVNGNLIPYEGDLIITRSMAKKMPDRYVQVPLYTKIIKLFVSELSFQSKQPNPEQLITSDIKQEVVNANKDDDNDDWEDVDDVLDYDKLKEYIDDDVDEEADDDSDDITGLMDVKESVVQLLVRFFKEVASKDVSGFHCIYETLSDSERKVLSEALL
The data set is described as follows: pull-down; MBP-Kap114 (WT or mutant; or MBP alone) 1 µM immobilized on amylose resin, equimolar Nap1_(2) ± H2A-H2B (1 or 2 µM) ± Ran^GTP; Assay Buffer (20 mM HEPES pH 7.4, 150 mM NaCl, 2 mM MgCl2, 10% glycerol, 2 mM DTT), 30 min at 4°C; Coomassie-stained SDS-PAGE. The following applies: both partners purified.

The target in data set [9] is B1. Put plainly: AUC; sedimentation velocity c(s) of Kap114, Nap1_(2) core and Ran^GTP alone and in mixtures at indicated molar ratios; 20 mM Tris-HCl pH 7.5, 150 mM NaCl, 2 mM MgCl2, 2 mM TCEP. The following applies: both partners purified.
Data set [10] concerns the molecule itself. The data set is described as follows: cryo-EM structure; Nap1 core dimer:H2A-H2B 1:2, then 1 molar ratio Kap114, 0.05% glutaraldehyde 1 min, SEC; no Ran^GTP; gave Nap1_(2), Kap114•H2A-H2B and two ternary assemblies.

In the case of “Sc H2A-H2B (from UniProt P04911 2-124; P02293 5-131) (complex)”, the stoichiometry N in [1], in [2], in data set [3] and in [4] was 1 throughout.

Kap114 (from UniProt P53067): in data set [5], the dissociation constant (Kd) was below 1 nM. Regarding B1, the Kd in data set [6] was 1040 nM. The “stoichiometry N” value in data set [7] is 1.

B2: Nap1 core (residues 75–365), His tag removed (domain or fragment, S. cerevisiae, UniProt P25293 75-365, looked up)
chain: GSLVGQDSGYVGGLPKNVKEKLLSLKTLQSELFEVEKEFQVEMFELENKFLQKYKPIWEQRSRIISGQEQPKPEQIAKGQEIVESLNETELLVDEEEKAQNDSEEEQVKGIPSFWLTALENLPIVCDTITDRDAEVLEYLQDIGLEYLTDGRPGFKLLFRFDSSANPFFTNDILCKTYFYQKELGYSGDFIYDHAEGCEISWKDNAHNVTVDLEMRKQRNKTTKQVRTIEKITPIESFFNFFDPPKIQNEDQDEELEEDLEERLALDYSIGEQLKDKLIPRAVDWFTGAAL
notes: Nap1 (nucleosome assembly protein 1), S. cerevisiae, core, residues 75–365; also called Nap1_(2) core; source: E. coli, purified (nickel-NTA, ion exchange, thrombin cleavage, SEC)
With B2, the binding result in [8] was “binds”. B3: the binding result in data set [9] and in data set [10] was “binds” throughout.

B4: Nap1 α5/6mut (E194A/D201A/D205A) (natural protein, S. cerevisiae, UniProt P25293 1-417, looked up)
chain: MSDPIRTKPKSSMQIDNAPTPHNTPASVLNPSYLKNGNPVRAQAQEQDDKIGTINEEDILANQPLLLQSIQDRLGSLVGQDSGYVGGLPKNVKEKLLSLKTLQSELFEVEKEFQVEMFELENKFLQKYKPIWEQRSRIISGQEQPKPEQIAKGQEIVESLNETELLVDEEEKAQNDSEEEQVKGIPSFWLTALANLPIVAATITARDAEVLEYLQDIGLEYLTDGRPGFKLLFRFDSSANPFFTNDILAKTYFYQKELGYSGDFIYDHAEGAEISWKDNAHNVTVDLEMRKQRNKTTKQVRTIEKITPIESFFNFFDPPKIQNEDQDEELEEDLEERLALDYSIGEQLKDKLIPRAVDWFTGAALEFEFEEDEEEADEDEDEEEDDDHGLEDDDGESAEEQDDFAGRPEQAPECKQS
notes: also called mutant α5/6mut; source: E. coli BL21 gold, purified (Ni-NTA, TEV cleavage, HiTrap Q, Superdex S200)
As to B4, the binding result in [8] is listed as “binds”.

As usually defined, the stoichiometry N is the number of molecules, sites or subunits per partner or assembly. Usually Kd stands for the concentration at which binding is half-saturated.

Source of the values: article PMC11602657, “Nap1 and Kap114 co-chaperone H2A-H2B and facilitate targeted histone release in the nucleus” (The Journal of Cell Biology, 2024).
